The series concerns the molecule itself. The series can be described thus: cryo-EM structure; HK97 Prohead I particles with portal, purified from E. coli co-expressing genes 3 and 5; buffer 100 mM KCl, 20 mM potassium phosphate pH 7.5; icosahedral map 3.6 A, focused reconstructions of penton vertex (C5, 3.0 A) and portal vertex (no symmetry 3.6 A, C12 3.2 A).

B1: bacteriophage HK97 portal protein (natural protein, UniProt P49859 1-424, looked up)
chain: MEEPKYTIDLRTNNGWWARLKSWFVGGRLVTPNQGSQTGPVSAHGYLGDSSINDERILQISTVWRCVSLISTLTACLPLDVFETDQNDNRKKVDLSNPLARLLRYSPNQYMTAQEFREAMTMQLCFYGNAYALVDRNSAGDVISLLPLQSANMDVKLVGKKVVYRYQRDSEYADFSQKEIFHLKGFGFTGLVGLSPIAFACKSAGVAVAMEDQQRDFFANGAKSPQILSTGEKVLTEQQRSQVEENFKEIAGGPVKKRLWILEAGFSTSAIGVTPQDAEMMASRKFQVSELARFFGVPPHLVGDVEKSTSWGSGIEQQNLGFLQYTLQPYISRWENSIQRWLIPSKDVGRLHAEHNLDGLLRGDSASRAAFMKAMGESGLRTINEMRRTDNMPPLPGGDVAMRQAQYVPITDLGTNKEPRNNGA
notes: Portal protein of bacteriophage HK97, wild-type gene 3; 50 N-terminal residues are not visible in the density map and are missing from the model; Dodecamer at one vertex of Prohead I; also called gene 3 product; dodecameric portal complex; source: E. coli BL21 (DE3), plasmid pVPB expressing HK97 genes 3 and 5; purified within Prohead I particles (PEG precipitation, ultracentrifugation, glycerol …)
Take B1: the “stoichiometry N” value was 12.

As usually defined, the stoichiometry N is the number of molecules, sites or subunits per partner or assembly.

Source of the values: PMC10275583, “A symmetry mismatch unraveled: How phage HK97 scaffold flexibly accommodates a 12-fold pore at a 5-fold viral capsid vertex” (Science Advances, 2023).
